Assay results as given in paper PMC9482650, “Quantitative fragmentomics allow affinity mapping of interactomes” (Nature Communications, 2022).

Columns and labels:
Experiment in all cases: holdup assay
Set-up in all cases: key: below the threshold = too weak to quantify, mostly under pKd 3.1 to 4
[1] = target: T1, DFNB31_1, Q9P202
T1 sequence (Q9P202 135-233, limits assumed, looked up): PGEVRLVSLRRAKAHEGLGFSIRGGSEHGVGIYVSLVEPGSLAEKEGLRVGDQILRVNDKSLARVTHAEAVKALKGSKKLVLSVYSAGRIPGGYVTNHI

[2] = target: PTPN3, P26045
PTPN3, P26045, sequence (P26045 505-587): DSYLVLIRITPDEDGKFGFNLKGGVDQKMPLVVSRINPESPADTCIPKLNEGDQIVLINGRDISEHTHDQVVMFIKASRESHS

[3] = target: T2, ARHGAP21, Q5T5U3
T2 sequence (Q5T5U3 45-169, limits assumed, looked up): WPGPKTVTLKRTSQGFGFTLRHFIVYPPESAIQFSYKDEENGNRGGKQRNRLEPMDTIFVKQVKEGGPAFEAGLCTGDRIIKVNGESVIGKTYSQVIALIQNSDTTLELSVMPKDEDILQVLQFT

[4] = target: PDZRN4_1, Q6ZMN7
PDZRN4_1, Q6ZMN7, sequence (Q6ZMN7 213-318): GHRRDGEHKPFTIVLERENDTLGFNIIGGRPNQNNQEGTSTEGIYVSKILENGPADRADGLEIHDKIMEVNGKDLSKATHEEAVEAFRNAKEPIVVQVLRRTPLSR

[5] = target: T3, SNTG2, Q9NY99
T3 sequence (Q9NY99 68-166, limits assumed, looked up): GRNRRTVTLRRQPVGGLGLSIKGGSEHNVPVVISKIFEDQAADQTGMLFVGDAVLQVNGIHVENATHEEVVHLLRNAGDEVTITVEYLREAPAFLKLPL

[6] = target: NHERF2_2, Q15599
NHERF2_2, Q15599, sequence (Q15599 142-238): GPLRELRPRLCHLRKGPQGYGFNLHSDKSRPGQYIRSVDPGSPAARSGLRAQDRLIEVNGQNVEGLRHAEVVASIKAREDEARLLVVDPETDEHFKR

[7] = target: SCRIB_1, Q14160
SCRIB_1, Q14160, sequence (Q14160 718-814): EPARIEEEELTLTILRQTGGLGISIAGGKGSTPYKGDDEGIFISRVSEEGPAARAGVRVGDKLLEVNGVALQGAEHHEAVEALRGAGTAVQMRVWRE

[8] = target: T4, DLG3_3, Q92796
T4 sequence (Q92796 374-475, limits assumed, looked up): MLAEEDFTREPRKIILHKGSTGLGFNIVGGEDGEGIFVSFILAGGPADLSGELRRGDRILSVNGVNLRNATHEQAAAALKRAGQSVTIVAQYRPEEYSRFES

[9] = target: T5, PTPN13_1, Q12923
T5 sequence (Q12923 1088-1188, limits assumed, looked up): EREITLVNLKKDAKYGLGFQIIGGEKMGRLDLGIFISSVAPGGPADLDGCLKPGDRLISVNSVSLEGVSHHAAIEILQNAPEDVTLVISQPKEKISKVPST

[10] = target: NHERF4_2, Q86UT5
NHERF4_2, Q86UT5, sequence (Q86UT5 220-308): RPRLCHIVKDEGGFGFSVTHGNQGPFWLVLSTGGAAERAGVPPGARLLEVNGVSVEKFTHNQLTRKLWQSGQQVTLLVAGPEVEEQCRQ

[11] = target: SCRIB_3, Q14160
SCRIB_3, Q14160, sequence (Q14160 999-1103): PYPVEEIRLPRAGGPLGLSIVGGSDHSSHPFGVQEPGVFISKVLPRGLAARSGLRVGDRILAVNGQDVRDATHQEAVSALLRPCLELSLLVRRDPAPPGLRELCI

[12] = target: DLG4_2, P78352
DLG4_2, P78352, sequence (P78352 155-259): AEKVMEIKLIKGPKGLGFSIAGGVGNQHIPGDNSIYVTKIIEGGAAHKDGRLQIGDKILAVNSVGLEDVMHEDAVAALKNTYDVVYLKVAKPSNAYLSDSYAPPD

[13] = target: LNX1_2, Q8TBB1
LNX1_2, Q8TBB1, sequence (Q8TBB1 371-470): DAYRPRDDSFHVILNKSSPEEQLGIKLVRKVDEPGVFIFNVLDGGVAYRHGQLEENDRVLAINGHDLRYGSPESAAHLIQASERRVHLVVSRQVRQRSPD

[14] = target: T6, SHANK1, Q9Y566
T6 sequence (Q9Y566 658-767, limits assumed, looked up): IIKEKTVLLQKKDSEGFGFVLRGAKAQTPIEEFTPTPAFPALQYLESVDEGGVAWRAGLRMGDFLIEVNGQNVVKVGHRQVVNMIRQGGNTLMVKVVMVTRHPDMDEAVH

[15] = target: AHNAK1, Q09666
AHNAK1, Q09666, sequence (Q09666 4-100): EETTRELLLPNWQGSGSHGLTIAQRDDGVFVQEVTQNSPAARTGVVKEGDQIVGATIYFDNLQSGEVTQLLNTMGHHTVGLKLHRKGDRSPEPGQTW

[16] = target: DLG2_2, Q15700
DLG2_2, Q15700, sequence (Q15700 189-283): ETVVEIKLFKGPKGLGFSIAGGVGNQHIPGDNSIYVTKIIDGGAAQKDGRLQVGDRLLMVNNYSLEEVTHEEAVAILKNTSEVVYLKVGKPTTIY

[17] = target: T7, DLG3_2, Q92796
T7 sequence (Q92796 221-321, limits assumed, looked up): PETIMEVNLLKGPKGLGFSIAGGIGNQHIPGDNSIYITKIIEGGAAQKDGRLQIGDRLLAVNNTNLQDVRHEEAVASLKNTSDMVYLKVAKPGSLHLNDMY

[18] = target: Inadl_6, Q8NI35
Inadl_6, Q8NI35, sequence (Q8NI35 1058-1167): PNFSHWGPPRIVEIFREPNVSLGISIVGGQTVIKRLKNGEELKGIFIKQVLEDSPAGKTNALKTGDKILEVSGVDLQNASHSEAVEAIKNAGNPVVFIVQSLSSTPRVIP

[19] = target: T8, LRRC7, Q96NW7
T8 sequence (Q96NW7 1440-1537, limits assumed, looked up): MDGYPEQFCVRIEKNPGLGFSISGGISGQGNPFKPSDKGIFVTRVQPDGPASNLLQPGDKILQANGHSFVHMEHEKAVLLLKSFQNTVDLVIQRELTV

[20] = target: T9, MPP2, Q14168
T9 sequence (Q14168 180-250, limits assumed, looked up): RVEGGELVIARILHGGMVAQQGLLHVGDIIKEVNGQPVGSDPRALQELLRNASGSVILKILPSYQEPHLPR

[21] = target: T10, SYNJ2BP, P57105
T10 sequence (P57105 8-110, limits assumed, looked up): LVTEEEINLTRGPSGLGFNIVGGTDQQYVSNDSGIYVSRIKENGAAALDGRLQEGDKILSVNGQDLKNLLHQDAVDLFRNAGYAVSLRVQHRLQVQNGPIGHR

[22] = target: GRASP, Q7Z6J2
GRASP, Q7Z6J2, sequence (Q7Z6J2 96-193): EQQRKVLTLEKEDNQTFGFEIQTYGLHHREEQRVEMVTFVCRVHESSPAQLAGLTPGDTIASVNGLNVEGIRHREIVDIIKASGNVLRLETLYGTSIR

[23] = target: T11, TJP3_3, O95049
T11 sequence (O95049 375-456, limits assumed, looked up): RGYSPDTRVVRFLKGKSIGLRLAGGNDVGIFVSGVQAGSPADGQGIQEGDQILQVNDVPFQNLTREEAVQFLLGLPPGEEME

[24] = target: T12, SIPA1L2, Q9P2F8
T12 sequence (Q9P2F8 945-1036, limits assumed, looked up): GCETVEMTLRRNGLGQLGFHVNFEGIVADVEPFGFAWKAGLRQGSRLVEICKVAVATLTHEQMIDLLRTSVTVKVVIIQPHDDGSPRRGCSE

[25] = target: SCRIB_2, Q14160
SCRIB_2, Q14160, sequence (Q14160 857-960): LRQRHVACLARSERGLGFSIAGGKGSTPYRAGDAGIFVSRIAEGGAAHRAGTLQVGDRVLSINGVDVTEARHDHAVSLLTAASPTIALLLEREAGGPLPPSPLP

[26] = target: FRMPD3, Q5JV73
FRMPD3, Q5JV73, sequence (Q5JV73 12-100): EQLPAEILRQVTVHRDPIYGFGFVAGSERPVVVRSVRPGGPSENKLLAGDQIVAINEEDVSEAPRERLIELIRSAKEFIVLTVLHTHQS

[27] = plain residues with an end cap or a label only (N-terminal biotin on a linker: ahx)
[28] = plain residues with an end cap or a label only (N-terminal biotin on a linker: ttds)
[29] = plain residues with an end cap or a label only (N-terminal biotin on a linker: ado-ado)

EKLSSIESDV [GRIN2B, Q13224]
pKd [1, 27]: below the threshold
pKd [2, 27]: 4.35
pKd [3, 27]: 3.71
pKd [4, 27]: below the threshold
pKd [5, 27]: 4.04
pKd [6, 27]: below the threshold
pKd [7, 27]: 3.71
pKd [8, 27]: below the threshold
pKd [9, 27]: below the threshold
pKd [10, 27]: below the threshold
pKd [11, 27]: 4.28
pKd [12, 27]: 4.86
pKd [13, 27]: below the threshold
pKd [14, 27]: below the threshold
pKd [15, 27]: below the threshold
pKd [16, 27]: below the threshold
pKd [17, 27]: 4.96
pKd [18, 27]: below the threshold
pKd [19, 27]: 3.63
pKd [20, 27]: below the threshold
pKd [21, 27]: 4.4
pKd [22, 27]: below the threshold
pKd [23, 27]: below the threshold
pKd [24, 27]: below the threshold
pKd [25, 27]: 4.34
pKd [26, 27]: below the threshold

HIVEALETDV [PBK, Q96KB5]
pKd [1, 28]: 4.03
pKd [2, 28]: 5.11
pKd [3, 28]: 3.91
pKd [4, 28]: below the threshold
pKd [5, 28]: 4.85
pKd [6, 28]: 3.97
pKd [7, 28]: 5.32
pKd [8, 28]: 3.88
pKd [9, 28]: below the threshold
pKd [10, 28]: below the threshold
pKd [11, 28]: 5.18
pKd [12, 28]: 5.55
pKd [13, 28]: below the threshold
pKd [14, 28]: below the threshold
pKd [15, 28]: below the threshold
pKd [16, 28]: 5.28
pKd [17, 28]: 5.71
pKd [18, 28]: 3.78
pKd [19, 28]: 3.91
pKd [20, 28]: below the threshold
pKd [21, 28]: 4.35
pKd [22, 28]: below the threshold
pKd [23, 28]: below the threshold
pKd [24, 28]: below the threshold
pKd [25, 28]: 5.32
pKd [26, 28]: below the threshold

SVVSERISSV [HTR2C, P28335]
pKd [1, 29]: below the threshold
pKd [2, 29]: 4.8
pKd [3, 29]: below the threshold
pKd [4, 29]: below the threshold
pKd [5, 29]: below the threshold
pKd [6, 29]: below the threshold
pKd [7, 29]: below the threshold
pKd [8, 29]: below the threshold
pKd [9, 29]: below the threshold
pKd [10, 29]: below the threshold
pKd [11, 29]: 3.71
pKd [12, 29]: 4.64
pKd [13, 29]: below the threshold
pKd [14, 29]: below the threshold
pKd [15, 29]: below the threshold
pKd [16, 29]: 4.4
pKd [17, 29]: 4.68
pKd [18, 29]: below the threshold
pKd [19, 29]: below the threshold
pKd [20, 29]: below the threshold
pKd [21, 29]: 4.46
pKd [22, 29]: 4.55
pKd [23, 29]: below the threshold
pKd [24, 29]: below the threshold
pKd [25, 29]: below the threshold
pKd [26, 29]: below the threshold

MERLRVETDV [ARHGEF16, Q5VV41]
pKd [1, 28]: below the threshold
pKd [2, 28]: 4.38
pKd [3, 28]: 3.63
pKd [4, 28]: 3.83
pKd [5, 28]: 4.47
pKd [6, 28]: below the threshold
pKd [7, 28]: 4.58
pKd [8, 28]: 3.88
pKd [9, 28]: below the threshold
pKd [10, 28]: below the threshold
pKd [11, 28]: 5.21
pKd [12, 28]: 5.44
pKd [13, 28]: 3.62
pKd [14, 28]: below the threshold
pKd [15, 28]: 3.6
pKd [16, 28]: 5.21
pKd [17, 28]: 5.61
pKd [18, 28]: below the threshold
pKd [19, 28]: 3.81
pKd [20, 28]: below the threshold
pKd [21, 28]: 4.8
pKd [22, 28]: below the threshold
pKd [23, 28]: below the threshold
pKd [24, 28]: below the threshold
pKd [25, 28]: 5.01
pKd [26, 28]: below the threshold

IQREDQETAV [DGKZ, Q13574]
pKd [1, 28]: 4.81
pKd [2, 28]: 5.12
pKd [3, 28]: below the threshold
pKd [4, 28]: 4.81
pKd [5, 28]: 4.95
pKd [6, 28]: 4.01
pKd [7, 28]: 4.71
pKd [8, 28]: 4.42
pKd [9, 28]: below the threshold
pKd [10, 28]: below the threshold
pKd [11, 28]: 5.05
pKd [12, 28]: 4.96
pKd [13, 28]: below the threshold
pKd [14, 28]: 4.3
pKd [15, 28]: below the threshold
pKd [16, 28]: 4.69
pKd [17, 28]: 4.88
pKd [18, 28]: 4.02
pKd [19, 28]: below the threshold
pKd [20, 28]: below the threshold
pKd [21, 28]: 5.31
pKd [22, 28]: 3.67
pKd [23, 28]: below the threshold
pKd [24, 28]: below the threshold
pKd [25, 28]: 4.86
pKd [26, 28]: below the threshold

KTSAHHATFV [RGS12, O14924]
pKd [1, 27]: 3.61
pKd [2, 27]: 3.92
pKd [3, 27]: below the threshold
pKd [4, 27]: below the threshold
pKd [5, 27]: below the threshold
pKd [6, 27]: below the threshold
pKd [7, 27]: 3.8
pKd [8, 27]: below the threshold
pKd [9, 27]: below the threshold
pKd [10, 27]: below the threshold
pKd [11, 27]: 4.18
pKd [12, 27]: 4.13
pKd [13, 27]: 3.54
pKd [14, 27]: below the threshold
pKd [15, 27]: below the threshold
pKd [16, 27]: 4.01
pKd [17, 27]: 3.92
pKd [18, 27]: 3.94
pKd [19, 27]: 3.59
pKd [20, 27]: below the threshold
pKd [21, 27]: 4.26
pKd [22, 27]: 4.12
pKd [23, 27]: below the threshold
pKd [24, 27]: below the threshold
pKd [25, 27]: 3.47
pKd [26, 27]: below the threshold
